Laboratory results from patent US20220378827A1 (EMORY UNIVERSITY, published 2022).

Target: T1, CD5 antigen on T cells (Jurkat, Molt-4, gamma delta T cells) (UniProt P06127 25-495, limits assumed)
T1 sequence (looked up): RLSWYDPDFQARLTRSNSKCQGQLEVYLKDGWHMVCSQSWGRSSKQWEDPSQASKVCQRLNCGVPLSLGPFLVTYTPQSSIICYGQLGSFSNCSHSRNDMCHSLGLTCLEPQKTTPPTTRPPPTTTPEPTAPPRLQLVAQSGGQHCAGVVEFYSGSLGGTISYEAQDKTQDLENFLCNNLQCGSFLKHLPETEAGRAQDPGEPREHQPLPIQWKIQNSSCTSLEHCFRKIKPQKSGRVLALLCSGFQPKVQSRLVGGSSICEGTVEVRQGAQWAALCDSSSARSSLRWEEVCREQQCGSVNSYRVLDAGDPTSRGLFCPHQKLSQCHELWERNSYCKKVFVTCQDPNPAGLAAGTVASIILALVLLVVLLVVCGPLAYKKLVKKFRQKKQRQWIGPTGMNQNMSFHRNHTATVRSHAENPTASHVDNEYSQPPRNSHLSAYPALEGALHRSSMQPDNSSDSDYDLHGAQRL
Test: cell-based or functional assay

B1: CD5-NSCAR (CD5 scFv non-signaling chimeric antigen receptor) (other)
chain: GAPEIQLVQSGGGLVKPGGSVRISCAASGYTFTNYGMNWVRQAPGKGLEWMGWINTHTGEPTYADSFKGRFTFSLDDSKNTAYLQINSLRAEDTAVYFCTRRGYDWYFDVWGQGTTVTVSSGGGGSGGGGSGGGGSDIQMTQSPSSLSASVGDRVTITCRASQDINSYLSWFQQKPGKAPKTLIYRANRLESGVPSRFSGSGSGTDYTLTISSLQYEDFGIYYCQQYDESPWTFGGGTKLEIKASEQKLISEEDLDNEKSNGTIIHVKGKHLCPSPLFPGPSKPFWVLVVVGGVLACYSLLVTVAFIIFWVRSEWPGKVR
CD5 expression on non-modified Jurkat T cells in co-culture with CD5-NSCAR-modified Jurkat T cells, 1:1 ratio: < 20%
